Changes are numbered by the printed parent chain. Where two headings read alike, the source gives them in different places.
T1: h108-219_r (human/rat chimera)
T1 construct: on HEK293 cells
T1 chain: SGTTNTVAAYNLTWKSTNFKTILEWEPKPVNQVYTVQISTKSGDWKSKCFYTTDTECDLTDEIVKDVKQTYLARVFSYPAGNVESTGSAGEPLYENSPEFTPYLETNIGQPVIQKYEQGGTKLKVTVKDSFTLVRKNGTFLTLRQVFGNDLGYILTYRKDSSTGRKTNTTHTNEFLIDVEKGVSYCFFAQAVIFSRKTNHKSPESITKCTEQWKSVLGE

T2: hTF_K149N (human, UniProt P13726 33-251)
T2 construct: on HEK293 cells; not shown: transmembrane and cytoplasmic part of the construct expressed on HEK293 cells
T2 chain: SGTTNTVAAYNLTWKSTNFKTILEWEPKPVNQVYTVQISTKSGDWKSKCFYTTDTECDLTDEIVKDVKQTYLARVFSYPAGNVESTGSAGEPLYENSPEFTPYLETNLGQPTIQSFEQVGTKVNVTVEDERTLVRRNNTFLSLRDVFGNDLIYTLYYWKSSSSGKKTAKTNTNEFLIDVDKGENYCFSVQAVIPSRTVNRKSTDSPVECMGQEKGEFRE

T3: hTF_N171H_T197K (human, UniProt P13726 33-251)
T3 construct: on HEK293 cells
T3 chain: T2 chain with N149K, N171H, T197K

T4: h1-107_r (human/rat chimera)
T4 construct: on HEK293 cells
T4 chain: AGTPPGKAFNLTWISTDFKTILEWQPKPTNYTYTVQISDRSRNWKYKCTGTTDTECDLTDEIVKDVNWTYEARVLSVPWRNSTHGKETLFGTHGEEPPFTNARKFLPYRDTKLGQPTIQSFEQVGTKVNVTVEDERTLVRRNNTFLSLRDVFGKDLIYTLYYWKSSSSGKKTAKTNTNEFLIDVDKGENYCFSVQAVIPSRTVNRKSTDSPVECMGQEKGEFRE

B1: 5G9 (antibody, V domains shown)
VH: QVQLVESGGGVVQPGRSLRLSCKASGFNIKDYYMHWVRQAPGKGLEWIGLIDPENGNTIYDPKFQGRFTISADNSKNTLFLQMDSLRPEDTAVYYCARDNSYYFDYWGQGTPVTVSS
VL: DIQMTQSPSSLSASVGDRVTITCKASQDIRKYLNWYQQKPGKAPKLLIYYATSLADGVPSRFSGSGSGTDYTFTISSLQPEDIATYYCLQHGESPYTFGQGTKLEIT
notes: Previously described anti-TF antibody; also called humanized TF8-5G9; CNTO 860
B2: 39A (antibody, human IgG1, V domains shown)
VH: QVQLVQSGAEVKKPGSSVKVSCKASGGTFSSNAIGWVRQAPGQGLEWMGSIIPIIGFANYAQKFQGRVTITADESTSTAYMELSSLRSEDTAVYYCARDSGYYYGASSFGMDVWGQGTTVTVSS
VL: EIVMTQSPATLSVSPGERATLSCRASQSVSSNLAWYQQKPGQAPRLLIYGASTRATGIPARFSGSGSGTEFTLTISSLQSEDFAVYYCEQYNNLPLTFGGGTKVEIK
notes: Human IgG1

How the values were obtained:
Assay in all cases: live cell staining, flow cytometry
h108-219_r = target: T1, h108-219_r
hTF_K149N = target: T2, hTF_K149N
hTF = target: T5, hTF (human, UniProt P13726 33-251)
T5 construct: also called human TF; human Tissue Factor

r141-194_h = target: T6, r141-194_h (rat/human chimera, UniProt P42533 29-252)
T6 construct: on HEK293 cells

hTF_N171H_T197K = target: T3, hTF_N171H_T197K
rTF (rat TF) [1] = target: T7, rTF (rat TF) (rat, UniProt P42533 29-252)
T7 construct: Expressed on the surface of transfected HEK293 cells

h1-107_r = target: T4, h1-107_r
h1-77_r = target: T8, h1-77_r (human/rat chimera)
T8 construct: Human TF with ECD residues 1-77 replaced by the rat segment; on HEK293 cells

rTF (rat TF) [2] = target: T7, rTF (rat TF); remark: listed apart in the source
h159-219_r = target: T9, h159-219_r (human/rat chimera)
T9 construct: on HEK293 cells

| Binder | Percent antibody binding to TF construct relative to hTF (h108-219_r) | Percent antibody binding to TF construct relative to hTF (hTF_K149N) | Percent antibody binding to TF construct relative to hTF (hTF) | Percent antibody binding to TF construct relative to hTF (r141-194_h) | Percent antibody binding to TF construct relative to hTF (hTF_N171H_T197K) | Percent antibody binding to TF construct relative to hTF (rTF (rat TF) [1]) | Percent antibody binding to TF construct relative to hTF (h1-107_r) | Percent antibody binding to TF construct relative to hTF (h1-77_r) | Percent antibody binding to TF construct relative to hTF (rTF (rat TF) [2]) | Percent antibody binding to TF construct relative to hTF (h159-219_r) |
| --- | --- | --- | --- | --- | --- | --- | --- | --- | --- | --- |
| B1 | 0% | – | – | – | – | – | – | – | – | – |
| B2 | – | 131% | 100% | 0% | 94% | 0% | 0% | 0% | 0% | 141% |
